Source: US20130122013A1 (Eli Lilly, published 2013)
Numbering of substitutions follows the chain as printed.

What was measured:
human ferroportin 1 [1] = target: T1, human ferroportin 1 (human, UniProt Q9NP59 1-571); assay: cell-based or functional assay
T1 sequence: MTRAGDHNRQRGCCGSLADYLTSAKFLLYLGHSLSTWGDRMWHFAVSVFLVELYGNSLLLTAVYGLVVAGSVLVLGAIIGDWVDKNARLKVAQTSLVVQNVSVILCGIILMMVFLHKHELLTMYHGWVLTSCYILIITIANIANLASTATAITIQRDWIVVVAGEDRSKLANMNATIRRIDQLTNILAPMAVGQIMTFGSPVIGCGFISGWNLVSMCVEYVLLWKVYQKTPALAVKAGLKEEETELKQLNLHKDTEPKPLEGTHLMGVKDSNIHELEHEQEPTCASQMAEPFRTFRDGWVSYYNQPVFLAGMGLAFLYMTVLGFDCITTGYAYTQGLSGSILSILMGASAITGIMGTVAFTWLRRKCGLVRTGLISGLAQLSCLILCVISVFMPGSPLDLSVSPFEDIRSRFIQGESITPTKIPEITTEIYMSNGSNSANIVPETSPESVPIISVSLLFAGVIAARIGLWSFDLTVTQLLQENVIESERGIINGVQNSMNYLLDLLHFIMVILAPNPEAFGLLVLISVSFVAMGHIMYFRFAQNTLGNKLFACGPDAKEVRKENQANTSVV

[2] = target: T2, human FPN1 C-terminally fused with GFP (human, UniProt Q9NP59 1-571, GFP reporter fused to the C-terminus ("FPN1 is C-terminally fused with GFP"). It is left out because the patent gives no letters for it.); assay: cell-based or functional assay
T2 sequence: T1 sequence

[3] = target: T2, human FPN1 C-terminally fused with GFP; assay: cell-based or functional assay; remark: listed apart in the source
[4] = target: T2, human FPN1 C-terminally fused with GFP; assay: SPR, Biacore T100, 25 C, 1:1 model; FPN1-GFP captured from cell lysate on rabbit anti-GFP antibody, Mab injected
Method: (§1) The affinities of FPN1 binding Fabs and Mabs may be determined on Biacore T100 and using 1:1 binding model in the Biacore T100 evaluation software (BIAcore® AB, Upsala, Sweden). […] FPN1 is C-terminally fused with GFP. Expression of FPN1-GFP is induced by 1-10 ng/mL doxycycline for 1-24 hours. Induced cells are harvested by scraping off from flasks and then washed with 1×PBS. Cell pellets can be stored at −80° C. before use. About five million induced cells are resuspended in 10 mM phosphate buffer with 0.2% Tween-20 and protease inhibitors, e.g., Complete™ Protease Inhibitor Cocktail Tablet (Roche Diagnostics Corp., Indianapolis, Ind.). Three cycles of freeze/thaw/sonication are used to lyse the cells. The lysate is diluted two-fold with Biacore running buffer and centrifuged to remove debris.
(§2) On Biacore T100, rabbit anti-GFP antibody or goat anti-GFP antibody is immobilized onto flow cell 1 to 4 of a CMS chip at 5000-15000 Rus. FPN1-GFP is captured onto flow cell 2, 3, or 4 from the lysate of induced cells. Flow cell 1 is used as reference. Then all flow cells are injected with different concentrations of antibodies to evaluate the binding and kinetics.

[5] = target: T2, human FPN1 C-terminally fused with GFP; assay: SPR, Biacore T100, 37 C, 1:1 model; FPN1-GFP captured from cell lysate on rabbit anti-GFP antibody, Fab injected
Method: as §1, §2

human ferroportin 1 [6] = target: T1, human ferroportin 1; assay: inhibition of binding of 30 nM biotinylated hepcidin to FPN/293 cells, ELISA of lysate; antibody at 125 nM; mean
Method: (§3) Next, 65 μL of lysing buffer (0.5% Triton X-100, 10 mM EDTA) are added to all the wells and the plates are shaken for 10 minutes. Next, 50 μL of the solution in each well is transferred to individual wells of a streptavidin coated Greiner microtiter plate (60 μL of 2 μg/mL streptavidin (Sigma, St. Louis, Mo.; catalog no. S4762) in PBS, incubated at 4° C. overnight, washed 2 times (0.1% Tween 20, TBS), blocked with casein/PBS), and then incubated for one hour at room temperature. […] After incubating one hour at room temperature, the plate is washed 4× and 50 μL of OPD substrate (Sigma; catalog no. P6912) is added. The reaction is stopped with 100 μL 1 N HCl after 4 minutes. Absorbance at 490 nm (A₄₉₀) is read using an appropriate ELISA plate reader.

human ferroportin 1 [7] = target: T1, human ferroportin 1; assay: inhibition of binding of 30 nM biotinylated hepcidin to FPN/293 cells, ELISA of lysate; antibody at 500 nM; mean
Method: as §3

human ferroportin 1 [8] = target: T1, human ferroportin 1; assay: inhibition of binding of 30 nM biotinylated hepcidin to FPN/293 cells, ELISA of lysate; antibody at 7.8 nM; mean
Method: as §3

human ferroportin 1 [9] = target: T1, human ferroportin 1; assay: inhibition of binding of 30 nM biotinylated hepcidin to FPN/293 cells, ELISA of lysate; antibody at 2000 nM; mean
Method: as §3

human ferroportin 1 [10] = target: T1, human ferroportin 1; assay: inhibition of binding of 30 nM biotinylated hepcidin to FPN/293 cells, ELISA of lysate; antibody at 31.25 nM; mean
Method: as §3

[11] = target: T2, human FPN1 C-terminally fused with GFP; assay: SPR, Biacore T100, 37 C, 1:1 model; FPN1-GFP captured from cell lysate on goat anti-GFP antibody, Fab injected; n = 3
Method: as §1, §2

[12] = target: T2, human FPN1 C-terminally fused with GFP; assay: SPR, Biacore T100, 37 C, 1:1 model; FPN1-GFP captured from cell lysate on goat anti-GFP antibody, Fab injected; n = 4
Method: as §1, §2

Control human IgG4 (antibody)
Percentage inhibition of mature hepcidin induced increase in cellular ferritin, Caco-2 cells, antibody at 2.22E-7 M (human ferroportin 1 [1]): 24.2%
Percentage inhibition of mature hepcidin induced increase in cellular ferritin, Caco-2 cells, antibody at 2.47E-8 M (human ferroportin 1 [1]): 22.1%
Percentage inhibition of mature hepcidin induced increase in cellular ferritin, Caco-2 cells, antibody at 2.7E-9 M (human ferroportin 1 [1]): 22.4%
Percentage inhibition of mature hepcidin induced increase in cellular ferritin, Caco-2 cells, antibody at 3.0E-10 M (human ferroportin 1 [1]): 15.5%
Percentage inhibition of mature hepcidin induced increase in cellular ferritin, Caco-2 cells, antibody at 6.67E-7 M (human ferroportin 1 [1]): 18.7%
Percentage inhibition of mature hepcidin induced increase in cellular ferritin, Caco-2 cells, antibody at 7.4E-8 M (human ferroportin 1 [1]): 21.1%
Percentage inhibition of mature hepcidin induced increase in cellular ferritin, Caco-2 cells, antibody at 8.0E-9 M (human ferroportin 1 [1]): 16.1%
Percentage inhibition of mature hepcidin induced increase in cellular ferritin, Caco-2 cells, antibody at 9.0E-10 M (human ferroportin 1 [1]): 17.5%

B1: Mab 1G9 (antibody, mouse IgG1, kappa, V domains shown)
VH: QVQLKQSGAELVRPGTSVKVSCKASGYAFTSFLIEWLKQRPGQGLEWIGTINPRTGGTKYNEKFRGKATLTADKSSSTAYMQLNSLTSDDSAVYFCVREFFDYWGQGTSLTVSS
VL: ETTVTQSPSYLAASPGETITINCRASKSISKYLAWFQEKPGKTNKLLIYAGSKLHSGIPSRFSGSGSGTDFTLTISSLEPEDFAMYYCFQHNEYPYTFGGGTKLELKR
notes: also called mouse 1G9; murine Mab 1G9
Percent (%) Inhibition of Mature Human Hepcidin-induced Internalization and Degradation, Mab at 7.4 nM [2]: 24.3%
Percent (%) Inhibition of Mature Human Hepcidin-induced Internalization and Degradation, Mab at 22 nM [2]: 49.9%
Percent (%) Inhibition of Mature Human Hepcidin-induced Internalization and Degradation, Mab at 67 nM [2]: 61.8%
Percent (%) Inhibition of Mature Human Hepcidin-induced Internalization and Degradation, Mab at 200 nM [2]: 62.4%
Percent (%) Inhibition of Mature Human Hepcidin-induced Internalization and Degradation, Mab at 600 nM [2]: 67.9%
Absolute IC50 of inhibition of hepcidin-25-induced internalization and degradation of FPN1-GFP [3]: 18.8 nM
Relative IC50 of inhibition of hepcidin-25-induced internalization and degradation of FPN1-GFP [3]: 9.2 nM
Top % Inhibition of hepcidin-25-induced internalization and degradation of FPN1-GFP [3]: 69%
Kd [4]: 0.728 nM
koff [4]: 9.81e-05 s⁻¹
kon [4]: 135000 M⁻¹ s⁻¹

B2: Fab 34A9 (Fab, V domains shown)
VH: B1 VH with S31N, R54E
VL: ETTVTQSPSYLAASPGETITINCRASKSISKYLAWFQEKPGKTNKLLIYAGSTLHSGIPSRFSGSGSGTDFTLTISSLEPEDFAMYYCQQHNEYPYTFGGGTKLELK
notes: Mouse Fab; also called mouse Fab 34A9
Kd [5]: 41.5 nM
koff [5]: 0.00262 s⁻¹
kon [5]: 63200 M⁻¹ s⁻¹

B3: Mab L2.2-4 (antibody, human IgG4 S228P, kappa, F234A L235A, V domains shown)
VH: QVQLVQSGAEVKKPGSSVKVSCKASGYAFTSFLIEWVRQAPGQGLEWMGTSNPRTGGRKYKEKFRGRVTITADKSTSTAYMELSSLRSEDTAVYYCAREFFDYWGQGTTVTVSS
VL: DIQMTQSPSSLSASVGDRVTITCRASKSISKYTAWYQQKPGKAPKLLIYAGSKLRSGVPSRFSGSGSGTDFTLTISSLQPEDFATYYCQQHNEYPYTFGGGTKVEIKR
Absolute IC50 of inhibition of hepcidin-25-induced internalization and degradation of FPN1-GFP [3]: 6.2 nM
Relative IC50 of inhibition of hepcidin-25-induced internalization and degradation of FPN1-GFP [3]: 4.8 nM
Top % Inhibition of hepcidin-25-induced internalization and degradation of FPN1-GFP [3]: 81.6%
EC50 of inhibition of mature hepcidin induced increase in cellular ferritin, Caco-2 cells (human ferroportin 1 [1]): 193 nM
Percentage inhibition of mature hepcidin induced increase in cellular ferritin, Caco-2 cells, Mab at 2.22E-7 M (human ferroportin 1 [1]): 53.8%
Percentage inhibition of mature hepcidin induced increase in cellular ferritin, Caco-2 cells, Mab at 2.47E-8 M (human ferroportin 1 [1]): 30.1%
Percentage inhibition of mature hepcidin induced increase in cellular ferritin, Caco-2 cells, Mab at 2.7E-9 M (human ferroportin 1 [1]): 39.6%
Percentage inhibition of mature hepcidin induced increase in cellular ferritin, Caco-2 cells, Mab at 3.0E-10 M (human ferroportin 1 [1]): 24.1%
Percentage inhibition of mature hepcidin induced increase in cellular ferritin, Caco-2 cells, Mab at 6.67E-7 M (human ferroportin 1 [1]): 61.7%
Percentage inhibition of mature hepcidin induced increase in cellular ferritin, Caco-2 cells, Mab at 7.4E-8 M (human ferroportin 1 [1]): 40.6%
Percentage inhibition of mature hepcidin induced increase in cellular ferritin, Caco-2 cells, Mab at 8.0E-9 M (human ferroportin 1 [1]): 39.5%
Percentage inhibition of mature hepcidin induced increase in cellular ferritin, Caco-2 cells, Mab at 9.0E-10 M (human ferroportin 1 [1]): 24.4%
% Inhibition (human ferroportin 1 [6]): 76.5%
% Inhibition (human ferroportin 1 [7]): 99.8%
% Inhibition (human ferroportin 1 [8]): -0.1%
% Inhibition (human ferroportin 1 [9]): 85.1%
% Inhibition (human ferroportin 1 [10]): 27.5%

B4: Fab 3D8 (Fab, V domains shown)
VH: B3 VH with R58T
VL: DIQMTQSPSSLSASVGDRVTITCRASKSISKYTAWYQQKPGKAPKLLIYAGSKLHSGVPSRFSGSGSGTDFTLTISSLQPEDFATYYCQQHNEYPYTFGGGTKVEIK
notes: Humanized form of mouse Fab 1G9 (VH1-69 and O2 frameworks); also called human 3D8
Kd [5]: 10.4 nM
koff [5]: 0.002 s⁻¹
kon [5]: 192000 M⁻¹ s⁻¹
Kd [11]: 6.29 nM
koff [11]: 0.00206 s⁻¹
kon [11]: 328000 M⁻¹ s⁻¹

B5: Fab L2.2-4 (Fab, V domains shown)
VH: B3 VH
VL: B4 VL with H55R
notes: also called human L2.2-4
Kd [11]: 1.96 nM
koff [11]: 0.00079 s⁻¹
kon [11]: 431000 M⁻¹ s⁻¹

B6: Fab 4A10-3 (Fab, V domains shown)
VH: B3 VH
VL: B4 VL with S56W
notes: also called human 4A10-3
Kd [12]: 1.76 nM
koff [12]: 0.00148 s⁻¹
kon [12]: 844000 M⁻¹ s⁻¹

B7: Fab Combi11 (Fab, V domains shown)
VH: B3 VH with G57R, R58T, E62S
VL: B4 VL with L54R, S56W
notes: also called human Combi11
Kd [11]: 2.4 nM
koff [11]: 0.00637 s⁻¹
kon [11]: 2.31e+06 M⁻¹ s⁻¹
